The text below walks through data of patent CN1930187A.

For assay [1], the target named is EGFRvIII-rabbit Fc fusion protein (EGFRvIII-RbFc) (human; rabbit) (UniProt P00533). Briefly: ELISA, transfection supernatant titrated on EGFRvIII-Rab Ig Fc coat.
Assay [2] addresses T1, Pep-3, NH2-…-OH (MW 1590 Da) (human).
T1 sequence (peptide): LEEKKGNYVVTDHG
Put plainly: SPR (Biacore 2000), mAb immobilised, pep-3 injected.

The target is the same in assay [3]. Briefly: SPR (Biacore 2000), mAb immobilised, pep-3 injected, 1:1 model.

B1: SC-EGFRvIII-XG2-170 (antibody, human IgG1, V domains shown)
VH: QVQLQQSGPGLVKPSQTLSLTCAISGDSVSSNNAAWNWIRQSPARGLEWLGRTYYRSKWYNDYVVSVKSRITINPDTSKNQFSLQLNSVTPEDTAVYYCVRATAFDYWGQGTLVTVSS
VL: AIVLTQTPLSSPVTLGQPASISCRSSQSLVHRDGNTYLSWLQQRPGQPPRLLIYKISNRFSGVPDRFSGSGAGTDFTLKISRVEPDDVGVYYCMHTTQLPWTFGQGTKVEIK
The molecule B1 displayed a titre, antigen binding (抗原结合) (titre (1:x dilution)) in assay [1] greater than 64.

B2: SC-EGFRvIII-XG2-150 (antibody, human IgG1, V domains shown)
VH: QVQLQQSGPGLVKPSQTLSLTCAISGDSVSSYSSAWNWIRQSPSRGLEWLGRAYHRSRWYYEYAVSVKSRINITPDTSKNQFSLQLNSVTPEDTAVYYCARGSRFDYWGQGTLVTVSS
VL: DIVMTQTPLSSPVTLGQPASISCRSSQSLVHRDGNTYLSWLQQRPGQPPRLLIYKISNRFSGVPDRFSGSGAGTDFTLKISRVEAEDVGIYFCMHTTQFPWTFGQGTRVEIK
In assay [1], B2 registered a titre, antigen binding (抗原结合) (titre (1:x dilution)) greater than 64.

B3: SC-EGFRvIII-XG1-123/124 (antibody, human IgG1, V domains shown)
VH: QVQLVESGGGVVQPGRSLRLSCAASGFTLSSYGMHWVRQAPGKGLEWVAVMSYDGSKEDYADSVKGRFTISRDNSENTLYLQMNSLRAEDTAVYYCVSEGYCSSRSCYKYYYYGMDVWGQGTTVTVSS
VL: DIVMTQSPLSLPVTPGEPASISCRSSQSLLYRNGNNYLDWYLQKPGQSPQLLIYLGSNRASGVPDRFSGSGSGTDFTLNISRVEAEDVGHYYCMQALQTPRTFGQGTKVEIK
In assay [1], B3 returned a titre, antigen binding (抗原结合) (titre (1:x dilution)) greater than 64.

B4: SC-EGFRvIII-XG1-342 (antibody, human IgG1, V domains shown)
VH: QVQLVESGGGVVQPGRSLRLSCVASGFTLSSYGMHWVRQAPGKGLEWVAVTSYDGSKKDYADSVKGRFTISRDNSKNTLYLQMNSLRAEDTAVYYCVSEGYCDSTSCYKYYYYGMDVWGQGTTVTVSS
VL: DIVMTQSPLSLPVTPGEPASISCRSSQSLLYRNGNNYLDWYLQRPGQSPQLLIYLGSNRASGVPDRFSGSGSGTDFTLKISRVEAEDVGVYYCMQALQTPRTFGQGTKVEIK
B4 gave a titre, antigen binding (抗原结合) (titre (1:x dilution)) in assay [1] greater than 64.

B5: SC-EGFRvIII-XG1-318 (antibody, human IgG1, V domains shown)
VH: QVQLVESGGGVVQPGRSLRLSCVASGFTLSSYGMHWVRQAPGKGLEWVAVTSYDGSKKDYADSVKGRFTISRDNSKNTLYLQMNSLRAEDTAVYYCVSEGYCDSSSCYKYYYYGMDVWGQGTTVTVSS
VL: DIVMTQSPLSLPVTPGEPASISCRSSQSLLYRNGNNYLDWYLQRPGQSPQLLIYLGSNRASGVPDRFSGSGSGTDFTLKISRVEAEDVGVYYCMQALQTPRTFGQGTKVEIK
B5: in assay [1], the titre, antigen binding (抗原结合) (titre (1:x dilution)) was 64.

B6: SC-EGFRvIII-XG1-333 (antibody, human IgG1, V domains shown)
VH: QVQLVESGGGVVQPGRSLRLSCVASGFTLSSYGMHWVRQALGKGLEWVAVTSYDGSKKDYADSVKGRFTISRDNSKNTLYLQMNSLRAEDTAVYYCVSEGYCDSTSCYKYYYYGMDVWGQGTTVTVSS
VL: DIVMTQSPLSLPVTPGEPASISCRSSQSLLYRNGNNYLDWYLQRPGQSPQLLIYLGSNRASGVPDRFSGSGSGTDFTLKISRVEAEDVGVYYCMQALQTPRTFGQGTKVEIK
In assay [1], B6 yielded a titre, antigen binding (抗原结合) (titre (1:x dilution)) greater than 64.

B7: SC-EGFRvIII-XG1-211 (antibody, human IgG1, V domains shown)
VH: QVQLVESGGGVVQPGRSLRLSCVASGFTLSSYGMHWVRQAPGKGLEWVAVTSYDGSKKDYADSAKGRFTISRDNSKNTLYLQMNSLRAEDTAVYYCVSEGYCSSSSCYKYYYYGMDVWGQGTTVTVSS
VL: DIVMTQSPLSLPVTPGEPASISCRSSQSLLYRNGNNYLDWYLQRPGQSPQLLIYLGSNRASGVPDRFSGSGSGTDFTLKISRVEAEDVGVYYCMQALQTPRTFGQGTKVEIK
B7 returned a titre, antigen binding (抗原结合) (titre (1:x dilution)) in assay [1] greater than 64.

B8: AB-EGFRvIII-XG1-095 (antibody, human IgG1, V domains shown)
VH: QVQLQESGPFLVKPSQTLSLTCTVSGGSISSGGYYWSWIRQHPGKGLEWIGFIYYRGNTYYNPSLKSRVTISVDTSKNQFSLKLSSVTAADTAVYYCARDGYCSRTGCYGGWFDPWGQGTLVTVSP
VL: DIVMTQTPLSSPVTLGQPASISCRSSQSLIHTDGNIYLSWLQQRPGQPPRLLIYKISNRFSGVPDRFSGSGAGTDFTLKISRVEAEDVGVYYCMQGTQFPITFGQGTRLEIK
In assay [2], B8 came in with a Kd of 0.066 µM, a koff of 0.0099 s⁻¹ and a kon of 149000 M⁻¹ s⁻¹. In assay [3], this molecule displayed a koff of 0.00993 s⁻¹ and a kon of 149000 M⁻¹ s⁻¹.

B9: SC-EGFRvIII-XG1-250 (antibody, human IgG1, V domains shown)
VH: EGQLLESGGGWVQPGESLRLSCAASGFTFSSYAMSWVRQAPGKGLEWVSAISGSGGSTNYADSVKGRFTISRDNSKNTLYLQVNSLRVEDTAVYYCAGSSGWSEYWGQGTLVTVSS
VL: DIQMTQSPSSLSASVGDSVTITCRTSQGIRKNLGWYQQKPGKAPKRLIYAASSLQSGVPSRFSGSGSGTEFTLTISRLQPEDFATYYCLQHHSYPLTFGGGTRVEIR
In the case of B9, the titre, antigen binding (抗原结合) (titre (1:x dilution)) in assay [1] was greater than 64.

B10: SC-EGFRvIII-XG1-139 (antibody, human IgG1, V domains shown)
VH: EVQVLESGGGLVQPGGSLRLSCAASGFTFSSYAMSWVRQAPGKGLEWVSAISGSGGSTNYADSVKGRFTISRDNSKNTLYLQMNSLRAEDTAVYYCAGSSGWSEYWGQGTLVTVSS
VL: DIQMTQSPSSLSASVGDRVTITCRASQGIRNNLAWYQQKPGKAPKRLIYAASNLQSGVPSRFTGSGSGTEFTLIVSSLQPEDFATYYCLQHHSYPLTSGGGTKVEIK
As to B10, in assay [2], the Kd was determined as 0.29 µM, the koff is 0.00298 s⁻¹ and the kon came to 10300 M⁻¹ s⁻¹. In addition, in assay [3], the koff is 0.00298 s⁻¹ and the kon is 10300 M⁻¹ s⁻¹. The same molecule displayed a titre, antigen binding (抗原结合) (titre (1:x dilution)) in assay [1] greater than 64.
